Results on nine molecules are retold here after patent publication US8357523B2, “Beta-glucosidase variant enzymes and related polynucleotides” (Codexis, Inc., priority 2009, dated 2013).

B1: 287 (protein)
chain: STAIAQEGAAPAAILHPEKWPRPATQRLIDPAVEKRVDALLKQLSVEEKVGQVIQGDIGTITPEDLRKYPLGSILAGGDSGPNGDDRAPPKEWLDLADAFYRVSLEKRPGHTPIPVLFGIDAVHGHGNIGSATIFPHNIALGMTRDPELLRRIGEVTAEEMAATGIDWTFAPALSVVRDDRWGRTYEGFSEDPEIVASYSAAIVEGVQGKYGSKDFMAPGRIVASAKHFLADGGTDQGRDQGDARISEDELIRIHNAGYPPAIDAGVLTVMASFSSWQGIKHHGHKQLLTDVLKGQMGFNGFIVGDWNAHGQVPGCTKFNCPTSLIAGLDMYMAADSWKQLYENTLAQVKDGTIPMARLDDAVRRILRVKVLAGLFEKPAPKDRPGLPGLETLGSPEHRAVGREAVRKSLVLLKNDKGTLPLSPKARVLVAGDGADNIGKQSGGWTISWQGTGNRNDEFPGATSILGGIRDAVADAGGSVEFDVAGQYKTKPDVAIVVFGEEPYAEFQGDVETLEYQPDQKQDLALLKKLKDQGIPVVAVFLSGRPMWVNPELNASDAFVAAWLPGTEGGGVADVLFTDKAGKVQHDFAGKLSYSWPRTAAQTTVNRGDADYNPLFAYGYGLTYKDKSKVGTLPEESGVPAEARQNAGIYFRAGALRLPGRFL
B2: 282 (protein)
chain: B1 chain with I246C, G311D
B3: 284 (protein)
chain: B1 chain with G298R, G311E
B4: 278 (protein)
chain: STAIAQEGAAPAAMLHPEKWPRPATQRLIDPAVEKRVDALLKQLSVEEKVGQVIQGDIGTITPEDLRKYPLGSILAGGDSGPNGDDRAPPKEWLDLADAFYRVSLEKRPGHTPIPVLFGIDAVHGHGNIGSATIFPHNIALGMTRDPELLRRIGEVTAEEMAATGIDWTFAPALSVVRDDRWGRTYEGFSEDPEIVASYSPAIVEGVQGKYGSKDFMAPGRIVASAKHFLADGGTDQGRDQGDARISEDELIRIHNAGYPPAIDAGVLTVMASFSSWQGIKHHGHKQLLTDVLKGQMGFNGFIVGDWNAHDQVPGCTKFNCPTSLIAGLDMYMAADSWKQLYENTLAQVKDGTIPMARLDDAVRRILRVKVLAGLFEKPAPKDRPGLPGLETLGSPEHRAVGREAVRKSLVLLKNDKGTLPLSPKARVLVAGDGADNIGKQSGGWTISWQGTGNRNDEFPGATSILGGIRDAVADAGGSVEFDVAGQYKTKPDVAIVVFGEEPYAEFRGDVETLEYQPDQKQDLTLLKKLKDQGIPVVAVFLSGRPMWVNPELNASDAFVAAWLPGTEGGGVADVLFTDKAGKVQHDFAGKLSYSWPRTAAQTTVNRGDADYNPLFAYGYGLTYKDRSKVGTLPEESGVPAEARQN
B5: 213 (protein)
chain: STAIAQEGAGPAAILHPEKWPRPATQRLIDPAVEKRVDALLKQLSVEEKVGQVIQGDIGTITPEDLRKYPLGSILAGGDSGPNGDDRAPPKEWLDLADAFYRVSLEKRPGHTPIPVLFGIDAVHGHGNIGSATIFPHNIALGMTRDPELLRRIGEVTAEEMAATGIDWTFAPALSVVRDDRWGRTYEGFSEDPEIVASYSAAIVEGVQGKYGSKDFMAPGRIVASAKHFLADGGTDQGRDQGDARISEDELIRIHNAGYPPAIDAGVLTVMASFSSWQGIKHHGHKQLLTDVLKGQMGFNGFIVGDWNAHDQVPGCTKFNCPTSLIAGLDMYMAADSWKQLYENTLAQVKDGTIPMARLDDAVRRILRVKVLAGLFEKPAPKDRPGLPGLETLGSPEHRAVGREAVRKSLVLLKNDKGTLPLSPKARVLVAGDGADNIGKQSGGWTISWQGTGNRNDEFPGATSILGGIRDAVADAGGSVEFDVAGQYKTKPDVAIVVFGEEPYAEFQGDVETLEYQPDQKQDLALLKKLKDQGIPVVAVFLSGRPMWVNPELNASDAFVAAWLPGTEGGGVADVLFTDKAGKVQHDFAGKLSYSWPRTAAQTTVNRGDADYNPLFAYGYGLTYKDKSKVGTLPEESGVP
B6: 285 (protein)
chain: B5 chain with G10A, G386E
B7: 283 (protein)
chain: B5 chain with G10A, V371M
B8: 214 (protein)
chain: B5 chain with A3L, G10A
B9: 133 (protein)
chain: B1 chain with N128K, F135L, E159V, A162T, A173C, Y211F, P219V, G311D

Where a chain is given by its changes, count along the chain named.

The nature of one data set: High throughput cellobiose assay: fold improvement in cellobiase activity of CelA variants over a control enzyme (Tables 2A-2D, 3, 5, 6, 7). The settings on record: 3.3 g/l cellobiose, 55° C. and pH 5.3 (incubation overnight). It counts as biochemical.
Take B1: the “Fold improvement over Control Variant No. 94 from Table 2B” value is given as “++++ (++++ = 1.1 to 1.5 fold improvement over Control No. 3, Variant No. 94)”.
Same read-out and setting: then B2, with “++++ (++++ = 1.1 to 1.5 fold improvement over Control No. 3, Variant No. 94)”.
Same read-out and setting: to B3 belongs “++++ (++++ = 1.1 to 1.5 fold improvement over Control No. 3, Variant No. 94)”; to B4, “++++ (++++ = 1.1 to 1.5 fold improvement over Control No. 3, Variant No. 94)”.
B5: the “Fold improvement over Control Variant No. 94 from Table 2B” value is given as “++++ (++++ = 1.1 to 1.5 fold improvement over Control No. 3, Variant No. 94)”.
The same measure, in the same setting: to B6 belongs “++++ (++++ = 1.1 to 1.5 fold improvement over Control No. 3, Variant No. 94)”; to B7, “++++ (++++ = 1.1 to 1.5 fold improvement over Control No. 3, Variant No. 94)”.
The same measure, in the same setting: then B8, with “++++ (++++ = 1.1 to 1.5 fold improvement over Control No. 3, Variant No. 94)”.

The data set is the same for the next values; noted with them: 3.3 g/l cellobiose, 55° C. and pH 6.0.
Consider B9, for which the “Fold improvement over Control Variant No. 5 from Table 2A” value is recorded as “++ (++ = 1.1 to 6 fold improvement over control Variant No. 2)”.
